This note sets out measurements from US20090048161A1 (VALORISATION HSJ SOCIETE EN COMMANDITE, published 2009).

Where no end group is shown, it is not given here. [ ]: non-standard residue; d: D form. dOrn = NCCC[C@@H](N)C(=O)O Where only a bound is given, the exact number is not on record here.

Common to all, as to assay: cell-based or functional assay
The target in assay [1] is T1, human Insulin-like growth factor 1 receptor (IGF-1R) (human, UniProt P08069 31-1367).
The target of assay [2] is IGF-1 receptor of rat aorta (rat, UniProt P24062 31-1370).
In assay [3] the target is T1, human Insulin-like growth factor 1 …. This is another data set of the same source.
Assay [4] has as its target T2, human Interleukin-1 receptor (IL-1R-alpha) (human, UniProt P14778 18-569).
T2 sequence: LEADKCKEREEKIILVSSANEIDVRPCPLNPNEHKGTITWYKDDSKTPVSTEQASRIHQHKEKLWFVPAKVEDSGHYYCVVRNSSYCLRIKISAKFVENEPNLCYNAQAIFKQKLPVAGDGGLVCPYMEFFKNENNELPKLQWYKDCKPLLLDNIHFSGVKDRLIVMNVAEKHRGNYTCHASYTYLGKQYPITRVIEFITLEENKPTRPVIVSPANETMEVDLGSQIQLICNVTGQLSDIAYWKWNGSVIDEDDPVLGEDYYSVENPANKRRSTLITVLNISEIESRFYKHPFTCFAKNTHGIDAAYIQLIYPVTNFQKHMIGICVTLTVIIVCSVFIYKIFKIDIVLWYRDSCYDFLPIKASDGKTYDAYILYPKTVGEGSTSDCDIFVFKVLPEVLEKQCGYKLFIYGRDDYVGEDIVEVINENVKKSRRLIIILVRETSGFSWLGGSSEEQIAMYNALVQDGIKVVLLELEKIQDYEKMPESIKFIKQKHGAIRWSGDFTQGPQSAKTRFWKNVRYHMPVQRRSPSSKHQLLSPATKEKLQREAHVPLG

Assay [5] addresses T3, IL-1R of pig (piglet pial vessels; porcine endothelial cells) (porcine (piglet), UniProt A0A5G2QSI4 18-572).
T3 sequence: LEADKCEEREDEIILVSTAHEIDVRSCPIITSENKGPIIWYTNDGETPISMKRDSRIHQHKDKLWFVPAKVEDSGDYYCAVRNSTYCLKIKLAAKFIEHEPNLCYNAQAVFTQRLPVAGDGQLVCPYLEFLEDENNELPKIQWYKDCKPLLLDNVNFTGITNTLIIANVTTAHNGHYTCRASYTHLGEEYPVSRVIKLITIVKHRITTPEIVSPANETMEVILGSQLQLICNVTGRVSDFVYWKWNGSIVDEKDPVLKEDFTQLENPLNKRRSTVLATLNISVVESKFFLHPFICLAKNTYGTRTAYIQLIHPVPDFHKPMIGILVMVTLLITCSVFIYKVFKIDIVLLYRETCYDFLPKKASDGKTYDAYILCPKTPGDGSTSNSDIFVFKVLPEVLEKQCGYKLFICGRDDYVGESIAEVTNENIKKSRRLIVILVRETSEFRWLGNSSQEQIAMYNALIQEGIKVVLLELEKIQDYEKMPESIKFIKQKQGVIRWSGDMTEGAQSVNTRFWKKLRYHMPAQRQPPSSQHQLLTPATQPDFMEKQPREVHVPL

The target of assay [6] is T2, human Interleukin-1 receptor …. The source holds these as a separate data set.
For assay [7] the target is unchanged. The source holds these as a separate data set.
Assay [8] concerns the target VEGFR-2 (Flk-1) (human, UniProt P35968 20-1356).
Assay [9] addresses T3, IL-1R of pig (piglet pial vessels; …). The source holds these as a separate data set.
Assay [10] concerns the target T1, human Insulin-like growth factor 1 …. This is another data set of the same source.

IGF-1 receptor of rat aorta, sequence (P24062 31-1370): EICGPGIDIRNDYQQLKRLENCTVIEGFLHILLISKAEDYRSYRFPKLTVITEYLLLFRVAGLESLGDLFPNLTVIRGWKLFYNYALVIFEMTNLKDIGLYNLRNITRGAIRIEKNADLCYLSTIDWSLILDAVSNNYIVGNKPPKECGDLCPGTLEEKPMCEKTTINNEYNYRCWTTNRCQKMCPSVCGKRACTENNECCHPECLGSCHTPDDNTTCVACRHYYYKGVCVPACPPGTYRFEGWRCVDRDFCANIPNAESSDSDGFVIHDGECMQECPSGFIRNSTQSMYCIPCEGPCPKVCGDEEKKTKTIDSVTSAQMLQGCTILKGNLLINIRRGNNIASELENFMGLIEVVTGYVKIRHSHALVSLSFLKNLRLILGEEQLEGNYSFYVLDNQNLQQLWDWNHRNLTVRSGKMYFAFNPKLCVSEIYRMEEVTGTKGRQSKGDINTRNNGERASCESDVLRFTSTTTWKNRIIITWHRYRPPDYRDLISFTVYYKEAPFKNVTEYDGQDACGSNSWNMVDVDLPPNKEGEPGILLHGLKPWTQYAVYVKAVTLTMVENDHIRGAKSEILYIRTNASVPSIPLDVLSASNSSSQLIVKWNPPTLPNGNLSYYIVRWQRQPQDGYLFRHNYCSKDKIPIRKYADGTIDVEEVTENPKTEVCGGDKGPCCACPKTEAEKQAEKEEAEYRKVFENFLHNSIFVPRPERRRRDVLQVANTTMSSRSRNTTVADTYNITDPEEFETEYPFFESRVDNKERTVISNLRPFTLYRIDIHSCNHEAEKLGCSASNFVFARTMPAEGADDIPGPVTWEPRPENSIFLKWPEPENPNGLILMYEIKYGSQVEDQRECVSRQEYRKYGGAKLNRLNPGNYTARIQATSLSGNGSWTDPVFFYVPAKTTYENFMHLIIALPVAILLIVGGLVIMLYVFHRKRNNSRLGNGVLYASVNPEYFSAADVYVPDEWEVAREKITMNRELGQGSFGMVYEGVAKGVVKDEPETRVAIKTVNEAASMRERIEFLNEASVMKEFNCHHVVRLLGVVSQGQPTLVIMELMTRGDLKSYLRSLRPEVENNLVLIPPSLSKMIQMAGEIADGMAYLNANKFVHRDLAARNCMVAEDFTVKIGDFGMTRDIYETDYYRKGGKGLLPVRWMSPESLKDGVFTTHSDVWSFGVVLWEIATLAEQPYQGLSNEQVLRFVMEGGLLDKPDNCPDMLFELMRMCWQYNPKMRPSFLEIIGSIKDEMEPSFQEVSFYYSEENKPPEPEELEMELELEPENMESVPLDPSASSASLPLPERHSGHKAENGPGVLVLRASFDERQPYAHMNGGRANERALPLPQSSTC
T1 sequence (P08069 31-1367 limits assumed): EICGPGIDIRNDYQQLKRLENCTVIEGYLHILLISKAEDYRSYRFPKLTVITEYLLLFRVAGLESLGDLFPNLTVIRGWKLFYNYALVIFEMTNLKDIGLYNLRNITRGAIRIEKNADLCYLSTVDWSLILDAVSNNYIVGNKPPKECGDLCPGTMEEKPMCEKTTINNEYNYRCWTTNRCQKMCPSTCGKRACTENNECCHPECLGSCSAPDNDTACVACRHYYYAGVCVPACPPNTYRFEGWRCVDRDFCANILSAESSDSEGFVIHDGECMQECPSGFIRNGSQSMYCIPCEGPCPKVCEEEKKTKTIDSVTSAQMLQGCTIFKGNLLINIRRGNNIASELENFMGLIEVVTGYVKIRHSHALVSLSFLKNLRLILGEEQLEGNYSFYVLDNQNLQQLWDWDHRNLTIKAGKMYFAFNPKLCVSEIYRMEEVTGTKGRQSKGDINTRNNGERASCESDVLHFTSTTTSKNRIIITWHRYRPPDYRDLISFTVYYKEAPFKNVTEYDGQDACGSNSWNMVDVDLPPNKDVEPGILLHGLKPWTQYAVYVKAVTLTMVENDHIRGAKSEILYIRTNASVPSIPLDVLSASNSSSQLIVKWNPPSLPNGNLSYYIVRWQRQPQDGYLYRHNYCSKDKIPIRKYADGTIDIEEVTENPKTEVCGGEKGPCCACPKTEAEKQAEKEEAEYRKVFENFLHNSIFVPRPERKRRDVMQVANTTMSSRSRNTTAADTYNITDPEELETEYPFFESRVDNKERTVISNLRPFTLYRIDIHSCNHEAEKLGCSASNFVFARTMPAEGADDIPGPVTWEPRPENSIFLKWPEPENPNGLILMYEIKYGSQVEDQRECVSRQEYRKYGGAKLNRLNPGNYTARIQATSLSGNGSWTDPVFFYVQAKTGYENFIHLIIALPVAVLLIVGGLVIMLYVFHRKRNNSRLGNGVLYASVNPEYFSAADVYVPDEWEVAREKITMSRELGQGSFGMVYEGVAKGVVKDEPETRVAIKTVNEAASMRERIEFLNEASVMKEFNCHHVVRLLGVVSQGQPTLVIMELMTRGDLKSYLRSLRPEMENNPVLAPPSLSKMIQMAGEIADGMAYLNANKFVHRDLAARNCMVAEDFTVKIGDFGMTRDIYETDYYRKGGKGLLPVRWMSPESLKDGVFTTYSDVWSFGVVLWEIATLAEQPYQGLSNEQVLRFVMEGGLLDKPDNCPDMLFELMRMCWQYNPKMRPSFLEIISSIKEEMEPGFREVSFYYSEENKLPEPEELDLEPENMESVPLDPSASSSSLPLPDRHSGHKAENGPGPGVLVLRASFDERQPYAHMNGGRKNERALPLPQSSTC
VEGFR-2 (Flk-1), sequence (P35968 20-1356 limits assumed): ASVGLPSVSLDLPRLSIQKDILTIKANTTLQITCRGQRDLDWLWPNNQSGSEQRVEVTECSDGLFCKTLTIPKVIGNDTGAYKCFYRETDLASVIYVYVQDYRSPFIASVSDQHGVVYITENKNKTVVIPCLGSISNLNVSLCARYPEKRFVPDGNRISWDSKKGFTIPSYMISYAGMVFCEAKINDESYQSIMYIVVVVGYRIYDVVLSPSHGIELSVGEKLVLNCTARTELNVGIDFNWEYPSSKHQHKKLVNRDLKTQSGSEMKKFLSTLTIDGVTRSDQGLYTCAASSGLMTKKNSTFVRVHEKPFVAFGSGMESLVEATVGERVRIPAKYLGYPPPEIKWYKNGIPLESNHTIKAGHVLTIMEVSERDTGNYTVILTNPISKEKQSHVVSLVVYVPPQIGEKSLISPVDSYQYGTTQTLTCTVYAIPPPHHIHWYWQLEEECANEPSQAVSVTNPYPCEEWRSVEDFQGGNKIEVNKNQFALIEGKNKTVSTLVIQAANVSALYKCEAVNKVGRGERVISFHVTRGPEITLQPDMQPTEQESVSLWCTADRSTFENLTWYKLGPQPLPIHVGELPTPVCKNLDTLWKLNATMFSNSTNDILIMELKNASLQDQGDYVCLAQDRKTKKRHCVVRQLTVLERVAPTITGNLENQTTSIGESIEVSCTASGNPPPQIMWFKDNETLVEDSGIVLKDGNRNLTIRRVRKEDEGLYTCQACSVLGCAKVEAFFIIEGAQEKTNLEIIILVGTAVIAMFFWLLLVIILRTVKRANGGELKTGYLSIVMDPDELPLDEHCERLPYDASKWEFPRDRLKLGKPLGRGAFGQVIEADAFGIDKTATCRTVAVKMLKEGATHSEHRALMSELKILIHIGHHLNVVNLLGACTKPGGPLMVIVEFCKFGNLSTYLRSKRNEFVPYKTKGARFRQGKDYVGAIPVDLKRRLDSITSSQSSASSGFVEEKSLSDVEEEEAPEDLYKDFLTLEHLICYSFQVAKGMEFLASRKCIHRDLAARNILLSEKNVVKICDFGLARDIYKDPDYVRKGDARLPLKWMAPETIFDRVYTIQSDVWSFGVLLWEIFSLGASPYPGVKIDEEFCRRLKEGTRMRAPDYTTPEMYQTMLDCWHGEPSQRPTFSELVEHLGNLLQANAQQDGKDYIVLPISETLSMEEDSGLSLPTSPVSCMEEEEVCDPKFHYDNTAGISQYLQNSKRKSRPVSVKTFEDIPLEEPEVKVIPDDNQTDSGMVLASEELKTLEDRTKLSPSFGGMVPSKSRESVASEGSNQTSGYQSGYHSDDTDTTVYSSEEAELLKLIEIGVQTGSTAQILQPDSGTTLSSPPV

In the case of KERTVISNLR [APG-206], in assay [1], the “EC50, IGF-1 (50 ng/ml)-induced proliferation, HepG2” value is less than 0.1 nM; the “EC50, IGF-1 (50 ng/ml)-induced proliferation, MCF-7” value (shortened to “EC50 … MCF-7”) stood at 2 nM; the “Emax, IGF-1 (50 ng/ml)-induced proliferation, MCF-7” value came to 60%. For the same molecule, in assay [2], the “EC50, inhibition of ex vivo IGF-1-induced vasorelaxation of rat aorta” value (“EC50, inhibition” below) was found to be 689 nM and the “Emax, inhibition of ex vivo IGF-1-induced vasorelaxation of rat aorta” value (from here on “Emax, inhibition”) came to 75%.
For the molecule RTVLSNL [APG-206.8], in assay [3], the “Emax, proliferation, MCF-7 (breast cancer) cells” value (shortened to “Emax, proliferation”) was found to be 100% and the “IC50, proliferation, MCF-7 (breast cancer) cells” value (shortened to “IC50, proliferation”) came to 0.6 nM.
As to [dR][dY][dT][dV][dE][dL][dA] (also: 125I-labelled form used as tracer, site not given here) [API-101.10], in [4], the “IC50, IL-1-induced PGE2 synthesis, WI-38 cells” value worked out at 0.2 nM and the “percent of IL-1β-induced WI-38 (human lung fibroblasts) proliferation abolished, 3H-thymidine” value (shortened to “percent”) was 100%. Moreover, in [5], the “IC50, IL-1-induced PGE2 synthesis, endothelial cells” value was found to be 1.2 nM and the “IC50, prevention of IL-1β (75 ng/ml)-induced vasodilation, piglet pial vessels” value was 10.8 nM.
For MKLPVHKLY [API-103], in assay [4], the “EC50, IL-1 induced proliferation, 3H-thymidine, A549 carcinoma cells” value (“EC50, IL-1 induced proliferation” for short) was determined as 1000 nM.
For [dA][dP][dR][dY][dT][dV][dE][dL][dA] [API-101], in [4], the “EC50, IL-1 induced proliferation” value amounted to 1000 nM; the “IC50, IL-1-induced PGE2 synthesis, WI-38 cells” value was 790 nM; the “percent” value came to 65%. Also, in assay [5], the “IC50, IL-1-induced PGE2 synthesis, endothelial cells” value turned out to be 220 nM and the “IC50, prevention of IL-1β (75 ng/ml)-induced vasodilation, piglet pial vessels” value turned out to be 182 nM.
In the case of [dY][dT][dV][dE][dL][dA] [API-101.11], the “percent” value in assay [4] was determined as 100%.
RTNASVPSI [APG-203]: in assay [1], the “EC50, IGF-1 (50 ng/ml)-induced proliferation, HepG2” value is less than 0.1 nM; the “EC50 … MCF-7” value was determined as 8 nM; the “EC50, IGF-1 (50 ng/ml)-induced proliferation, MDA-MB-231” value stood at 0.1 nM; the “Emax, IGF-1 (50 ng/ml)-induced proliferation, MCF-7” value is 45%. For the same molecule, the “Emax, IGF-1 (50 ng/ml)-induced proliferation, MDA-MB-231” value in assay [1] amounted to 100%. Moreover, in assay [2], the “EC50, inhibition” value is 96 nM and the “Emax, inhibition” value is 50%.
With [dR][dF][dV][dP][dE][dL][dA] [API-101.127], the “Emax (%), IL-1β-induced TF-1 proliferation” value in assay [6] is less than 30%.
On to [dOrn][dY][dT][dP][dE][dL][dA] [API-101.115], for which, in [7], the “Emax (%), IL-1β-induced proliferation in TF-1 cells (human)” value (“Emax (%), IL-1β-induced proliferation” for short) turned out to be 100% and the “IC50, IL-1β-induced proliferation in TF-1 cells (human)” value is roughly 0.001 nM.
Regarding [dE][dA][dT][dV]G[dE][dR][dV][dR][dL] (not fully specified (residue 5)) [VEGFR peptide 2.2], the “EC50, VEGF (2 ng/ml)-induced proliferation, 3H-thymidine, PAEC transfected with Flk-1” value in assay [8] amounted to 9000 nM.
Turning to [dK][dY][dT][dP][dE][dL][dA] [API-101.114], in assay [9], the “Emax (%), IL-1β-induced PGE2 synthesis in endothelial cells (porcine)” value (from here on “Emax (%), IL-1β-induced PGE2 synthesis”) stood at 50% and the “IC50, IL-1β-induced PGE2 synthesis in endothelial cells (porcine)” value (“IC50, IL-1β-induced PGE2 synthesis” for short) came to 0.002 nM.
[dR][dY][dT][dP][dE][dL] [API-101.113]: in assay [7], the “Emax (%), IL-1β-induced proliferation” value worked out at 100%. Besides, in [9], the “Emax (%), IL-1β-induced PGE2 synthesis” value amounted to 80% and the “IC50, IL-1β-induced PGE2 synthesis” value turned out to be 0.0074 nM. In addition, the “Emax (%), IL-1β-induced TF-1 proliferation” value in assay [6] was found to be 70%.
Consider ENFLHLLLA [APG-205], for which, in assay [1], the “EC50 … MCF-7” value stood at 0.1 nM; the “EC50, IGF-1 (50 ng/ml)-induced proliferation, MDA-MB-231” value was determined as 100 nM; the “Emax, IGF-1 (50 ng/ml)-induced proliferation, MCF-7” value was 60%; the “Emax, IGF-1 (50 ng/ml)-induced proliferation, MDA-MB-231” value amounted to 100%. In assay [2], the “EC50, inhibition” value amounted to 70 nM and the “Emax, inhibition” value is 25%.
Regarding [dR][dY][dT][dP][dD][dL][dA] [API-101.117], in assay [9], the “Emax (%), IL-1β-induced PGE2 synthesis” value is 100% and the “IC50, IL-1β-induced PGE2 synthesis” value came out at 0.01 nM.
Consider VGSPKNAVPPV [API-106], for which the “EC50, IL-1 induced proliferation” value in assay [4] is 10000 nM.
Consider KERTVLS [APG-206.5], for which, in [10], the “Emax, IGF-1-induced proliferation, NIH3T3-IGF-1R cells” value (“Emax, IGF-1-induced proliferation” for short) is 75% and the “IC50, IGF-1-induced proliferation, NIH3T3-IGF-1R cells” value (“IC50, IGF-1-induced proliferation” below) is 0.5 nM. Further, in assay [3], the “Emax, proliferation” value came out at 100% and the “IC50, proliferation” value is 9 nM.
As to [dR][dY][dT][dV][dQ][dL][dA] [API-101.103], the “IC50, PGE2 measurement, human WI-38 cells” value in assay [4] is 50 nM.
As for [dR][dW][dT][dP][dE][dL][dA] [API-101.116], in assay [7], the “Emax (%), IL-1β-induced proliferation” value was 75% and the “IC50, IL-1β-induced proliferation in TF-1 cells (human)” value stood at 0.5 nM. Besides, in assay [9], the “Emax (%), IL-1β-induced PGE2 synthesis” value worked out at 45% and the “IC50, IL-1β-induced PGE2 synthesis” value came out at 0.013 nM.
On to [dR][dY][dT][dP][dE][dV] [API-101.129], for which, in assay [6], the “Emax (%), IL-1β-induced TF-1 proliferation” value was 50% and the “IC50, IL-1β-induced TF-1 proliferation” value turned out to be 400 nM.
On to [dOrn][dY][dT][dP][dE][dL] [API-101.126], for which the “Emax (%), IL-1β-induced TF-1 proliferation” value in assay [6] amounted to 0%.
Regarding [dA][dQ][dE][dK][dT][dN][dL][dE][dI][dI][dI][dL][dV]G (not fully specified (residue 14)) [VEGFR peptide 2.1], in assay [8], the “EC50, VEGF (2 ng/ml)-induced proliferation, 3H-thymidine, PAEC transfected with Flk-1” value amounted to 9000 nM.
In the case of ERTVLSNL [APG-206.7], in [10], the “Emax, IGF-1-induced proliferation” value came out at 100% and the “IC50, IGF-1-induced proliferation” value turned out to be 20 nM. Moreover, in [3], the “Emax, proliferation” value was 90% and the “IC50, proliferation” value stood at 0.01 nM.
For the molecule TVLSNL [APG-206.9], in assay [10], the “Emax, IGF-1-induced proliferation” value is 90% and the “IC50, IGF-1-induced proliferation” value was determined as 20 nM.
[dK][dY][dT][dP][dE][dL] [API-101.133]: the “Emax (%), IL-1β-induced TF-1 proliferation” value in assay [6] is less than 10%.
As to [dR][dW][dT][dP][dE][dL] [API-101.128], in assay [6], the “Emax (%), IL-1β-induced TF-1 proliferation” value came out at 100% and the “IC50, IL-1β-induced TF-1 proliferation” value came out at 3 nM.
For R[dY][dT][dP][dE][dL] [API-101.135], the “Emax (%), IL-1β-induced TF-1 proliferation” value in [6] came to 63%.
